Biological target: T1, cell surface MET (Homo sapiens, UniProt P08581)
T1 construct: endogenous in cells; host or cells: Hcc827 or Hcc827-GR6
Test: Phage flow cytometry for binding to c-MET expressing cells
Details: phage antibodies; Hcc827 or Hcc827-GR6 cells; FITC anti-M13 detection
Procedure: For phage antibodies, flow cytometry was used to confirm their binding to c-MET expressing cells. Bacteria culture containing phage was concentrated 30 times into PBS according to published method (Antibody Engineering Methods and Protocols, Benny K. C. Lo). 2˜5×105 c-MET positive Hcc827 or Hcc827-GR6 cells (Engelman et. al, Science, 2007) were incubated with 100 ul concentrated phage and 30 ul 4% milk-PBS on ice for 1 hour. Cells were then washed using flow buffer (PBS, 1% FBS, 2 mM EDTA), and the binding phage antibodies were detected by FITC conjugated anti-M13 monoclonal antibody (Santa Cruz Biotechnology, Cat# sc-53005 Fitc).
93 clones were randomly picked after 3 rounds of panning. The phage-containing supernatant was used for phage ELISA. Top 64 clones with highest A405 signal were sequenced, among which 19 distinctive clones with different sequences were identified. These distinctive clones were then tested for binding to cell surface MET by phage flow experiments. 8 of these clones show good binding to cell surface MET and were selected for the subsequent purification and characterizations.

T1 sequence (P08581 25-1390): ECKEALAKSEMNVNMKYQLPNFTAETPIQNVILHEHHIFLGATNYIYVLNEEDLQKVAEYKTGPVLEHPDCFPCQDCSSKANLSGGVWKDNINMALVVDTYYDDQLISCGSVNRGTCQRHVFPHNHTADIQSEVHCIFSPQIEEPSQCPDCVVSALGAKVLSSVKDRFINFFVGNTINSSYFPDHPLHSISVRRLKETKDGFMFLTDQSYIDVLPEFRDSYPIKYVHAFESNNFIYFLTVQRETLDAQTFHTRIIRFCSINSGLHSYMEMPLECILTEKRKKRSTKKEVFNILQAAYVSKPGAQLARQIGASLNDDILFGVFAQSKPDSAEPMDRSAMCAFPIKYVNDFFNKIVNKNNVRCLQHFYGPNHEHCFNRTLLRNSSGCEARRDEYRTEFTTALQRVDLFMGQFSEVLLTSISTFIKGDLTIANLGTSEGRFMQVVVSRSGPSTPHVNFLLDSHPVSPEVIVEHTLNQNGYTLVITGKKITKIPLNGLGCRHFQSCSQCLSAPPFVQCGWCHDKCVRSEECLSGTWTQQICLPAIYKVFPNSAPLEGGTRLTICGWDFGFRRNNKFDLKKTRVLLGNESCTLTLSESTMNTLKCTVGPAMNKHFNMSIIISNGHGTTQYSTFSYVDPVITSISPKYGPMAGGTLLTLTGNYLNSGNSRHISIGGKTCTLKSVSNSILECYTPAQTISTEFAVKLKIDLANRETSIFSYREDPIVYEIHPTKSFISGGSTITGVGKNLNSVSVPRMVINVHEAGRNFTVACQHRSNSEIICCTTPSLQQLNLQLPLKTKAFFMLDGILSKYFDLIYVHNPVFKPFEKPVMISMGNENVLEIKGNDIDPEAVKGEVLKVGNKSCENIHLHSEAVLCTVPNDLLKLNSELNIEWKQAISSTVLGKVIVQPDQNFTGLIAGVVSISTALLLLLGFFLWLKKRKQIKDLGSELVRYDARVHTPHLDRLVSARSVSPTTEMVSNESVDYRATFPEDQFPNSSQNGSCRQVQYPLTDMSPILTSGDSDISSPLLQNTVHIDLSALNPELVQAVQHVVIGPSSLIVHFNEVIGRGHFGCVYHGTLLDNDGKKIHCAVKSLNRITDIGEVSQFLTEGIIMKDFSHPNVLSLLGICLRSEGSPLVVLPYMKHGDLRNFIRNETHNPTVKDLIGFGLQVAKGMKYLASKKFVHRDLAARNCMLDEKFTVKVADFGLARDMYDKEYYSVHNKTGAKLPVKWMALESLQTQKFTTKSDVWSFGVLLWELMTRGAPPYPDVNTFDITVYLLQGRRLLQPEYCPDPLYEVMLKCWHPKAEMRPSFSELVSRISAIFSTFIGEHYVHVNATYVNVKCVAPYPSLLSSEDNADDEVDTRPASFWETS

B1: G1 ScFv antibody: human anti-c-Met ScFv comprising SEQ ID NO:30; tested as phage-displayed clone (protein)
scFv: QVQLQESGGGVVQPGGSLRLSCAASGFTFSSYSMNWVRQAPGKGLEWVSSISSSSSYIYYADSVKGRFTISRDNAKNSLYLQMNSLRAEDTAVYYCARDLPSDDYGDYDYYYYGMDVWGQGTTVTVSSGGGGGSGGGGSGGGGSQSVLTQPPSASGTPGQRVTLFCSGSSSNIASNSVKWYQQPPQRAPKLLMFSDDQRPSGVPVRFSASKSGTSASLAISGLQSEDEADYYCAAWDDSLNAEVFGGGTKVTVLG
modifications: phage-displayed; synthetic G1 ScFv sequence
  binding to cell surface MET: can bind to cell surface MET

B2: C2 ScFv antibody: human anti-c-Met ScFv comprising SEQ ID NO:26; tested as phage-displayed clone (protein)
scFv: QVQLQESGGGLVQPGGSLRLSCAASGFTFSSYAMSWVRQAPGKGLEWVSAISGSGGSTYYADSVKGRFTISRDNSKNTLYLQMNSLRAEDTAVYYCASQHVGEQSRYFDYWGQGTLVTVSSGGGGGSGGGGSGGGGSDIVMTQSPSSLSASIGDRVTITCRASHSISSYVNWYQKKPGKAPNLLIYAASYLPRGVPSRFSGSGLGTDFTLTISNLQPEDFATYYCQESYSTPYSFGQGTKVDIKR
modifications: phage-displayed; synthetic C2 ScFv sequence
  binding to cell surface MET: can bind to cell surface MET

B3: F1 ScFv antibody: human anti-c-Met ScFv comprising SEQ ID NO:28; tested as phage-displayed clone (protein)
scFv: QVQLVQSGAEVKKPGASVKVSCKASGYTFTDYYMHWVRQAPGEGLEWMGWMNPNSGGTNYAQKFQGRVTMTRDTSISTAYMELSRLRSDDTAVYYCARSHYWDSWSPGTLVTVSSGGGGGSGGGGSGGGGSSALTQPASVSGSPGQSITISCTGTSGDVGGYNYVSWYQQHPGKAPKLMIYDVSNRPSGVSNRFSGSKSGNTASLTISGLQAEDEADYYCTSYAGSRNLVFGGGTKLTVLG
modifications: phage-displayed; synthetic F1 ScFv sequence
  binding to cell surface MET: can bind to cell surface MET

B4: F11 ScFv antibody: human anti-c-Met ScFv comprising SEQ ID NO:29; tested as phage-displayed clone (protein)
scFv: QVQLQESGGGLLQPGGSLRLSCAASRFTFSNYAMSWVRQAPGKGLEWVSAISGSGASTYYADSVKGRFTISRDNSKNTLYLQMNSLRAEDTAVYYCSNLYGDYDYWGQGTLVTVSSGGGGGSGGGGSGGGGSQSVLTQPASVSGSPGQSITISCTGTSSDVGGYNYVSWYQQHPGKAPKLMIYDVSNRPSGVSNRFSGSKSGNTASLTISGLQAEDEADYYCSSYTSSSTLLFGGGTKLTVLG
modifications: phage-displayed; synthetic F11 ScFv sequence
  binding to cell surface MET: can bind to cell surface MET

B5: E9 ScFv antibody: human anti-c-Met ScFv comprising SEQ ID NO:27; tested as phage-displayed clone (protein)
scFv: QVQLQESGGGVVQPGRSLRLSCAASGFTFSSYGMHWVRQAPGKGLEWVSAIGSSGGSTHDADTVKGRFTISRDNAKNSLYLQMNSLRAEDTAVYYCARDRARGFDYWGQGTLVTVSSGGGGGSGGGGSGGGGSEIVLTQSPSTLSASIGDRVTITCRASQGISSYLAWYQQKPGKAPKLLIYGASSLQSGVPSRFSGRGSGADFTLTISSLQPEDFATYYCQQLISYPLTFGGGTKVEIKR
modifications: phage-displayed; synthetic E9 ScFv sequence
  binding to cell surface MET: can bind to cell surface MET

From patent publication US10407503B2, “Fully human antibodies and fragments recognizing human c-Met” (THE REGENTS OF THE UNIVERSITY OF CALIFORNIA, priority 2012, dated 2019)
